Results as given in patent US20170209529A1 (BRIGHAM AND WOMEN S HOSPITAL, published 2017).
Bridge positions count the residues as written; N and C are the ends.

B1: SYN3258 (peptide)
peptide: Ac-RYFCTKWKHGWCEEVGTGGGRYFCTKWKHGWCEEVGT-NH2
modifications: disulfide 4-12, 24-32 (inferred)
notes: 37-mer, two SYN1753 units joined by GGG; also called Ac-[SYN1753]-GGG-[SYN1753]-CONH2

target: T1, soluble human FcRn (shFcRn) (human, UniProt P55899 24-297; P61769 21-119); test: SPR (Biacore), immobilized shFcRn, pH 6
T1 construct: For crystallography it was expressed in CHOK1SV cells and deglycosylated with PNGaseF; biotinylated for phage selection; also called hFcRn/β2m; FcRn-biotin

| binding result | Kd [µM] | Binder |
| --- | --- | --- |
| no binding |  | Ac-CKWDDGFSCEYV-NH2 (disulfide 1-9 (inferred)) [SYN1163] |
|  | 1.94 | YMTCKWDDGFSXEYV (N-terminal acetyl; C-terminal amide; Pen (penicillamine) at position 12) [SYN1168] |
| no binding |  | Ac-YMTCKADDGFSCEYV-NH2 (disulfide 4-12 (inferred)) [SYN1148] |
| no binding |  | Ac-YMTCKWDDGASCEYV-NH2 (disulfide 4-12 (inferred)) [SYN1152] |
|  | 0.57 | Ac-YMTCKWDDGFSCEY-NH2 (disulfide 4-12 (inferred)) [SYN1164] |
|  | 40.3 | Ac-YMTCKWDDGFSCE-NH2 (disulfide 4-12 (inferred)) [SYN1165] |
|  | 97.6 | Ac-TCKWDDGFSCEYV-NH2 (disulfide 2-10 (inferred)) [SYN1162] |
|  | 0.87 | YMTXKWDDGFSXEYV (N-terminal acetyl; C-terminal amide; Pen (penicillamine) at positions 4 and 12) [SYN1169] |
|  | 2.03 | YMTXKWDDGFSCEYV (N-terminal acetyl; C-terminal amide; Pen (penicillamine) at position 4) [SYN1167] |

target: T1, soluble human FcRn (shFcRn); test: SPR (Biacore), immobilized shFcRn, pH 6, steady-state fit

| Kd [µM] | Binder |
| --- | --- |
| 0.572 | Ac-VMKCWWDEEMLCRAV-NH2 (disulfide 4-12 (inferred); not fully specified) [SYN1540A] |
| 0.74 | Ac-VMHCFWDEEFKCDQG-NH2 (disulfide 4-12 (inferred)) [SYN1197] |
| 0.72 | Ac-YMHCFWDEEFKCDQG-NH2 (disulfide 4-12 (inferred)) [SYN1256] |
| 3.6 | Ac-VMHCFWDEAFKCDQG-NH2 (disulfide 4-12 (inferred)) [SYN1216] |
| 0.091 | Ac-VMHCFWDEEFKCDYG-NH2 (disulfide 4-12 (inferred)) [SYN1259] |
| 0.3 | Ac-VMHCFWDEEFKCDQV-NH2 (disulfide 4-12 (inferred)) [SYN1260] |
| 0.37 | Ac-VMHCFWDEEFKCEQG-NH2 (disulfide 4-12 (inferred)) [SYN1258] |
| 0.06 | Ac-VMHCFWDEEFRCDYG-NH2 (disulfide 4-12 (inferred)) [SYN1381] |
| 4.4 | Ac-VMHCFWDEAFRCDQG-NH2 (disulfide 4-12 (inferred)) [SYN1382] |

target: T1, soluble human FcRn (shFcRn); test: SPR (Biacore), pH 6.0
Method: SPR analyses: SPR analyses were conducted using a Biacore 3000 or T100 instrument. Research-grade CMS sensor chips and all coupling reagents for immobilization were purchased from Biacore. All proteins were cross-linked to the dextran surface of a CM5 sensor chip by standard amine coupling chemistry as recommended by Biacore. […] Binding experiments were performed at pH 6.0 or 7.4 using 50 mM phosphate, 100 mM sodium chloride and 0.01% surfactant P20. […] Bound albumin protein was then allowed to dissociate from the chip for 5 minutes with running buffer. Any remaining albumin was removed from the chip with a 60 second injection (2 cycles) of pH 8.0 Tris-HCl regeneration buffer (1 M Tris pH 8.0) at 25 μL/min flow rate. The binding responses recorded near the end of the association phase were plotted as a function of concentration. Equilibrium dissociation constants (KD), were derived from sensorgrams using the 1:1 binding model of BlAevaluation software 4.1.

| Kd [µM] | Binder |
| --- | --- |
| 0.5 | Ac-RYFCTKWKHGWCEEVGT-NH2 (disulfide 4-12 (inferred)) [SYN1753] |
| 0.0036 | B1 |

target: T1, soluble human FcRn (shFcRn); test: SPR (Biacore), immobilized shFcRn, pH 6, steady-state fit; remark: another data set of the same source

| Kd [µM] | Binder |
| --- | --- |
| 0.9 | Ac-RYFCTKWKHGWCEEVGTGGGK-NH2 (disulfide 4-12 (inferred)) [SYN1706] |
| 0.68 | Ac-AGRYFCTKWKHGWCEEVGTG-NH2 (disulfide 6-14 (inferred)) [SYN1709] |
| 13.8 | Ac-AYFCTKWKHGWCEEV-NH2 (disulfide 4-12 (inferred)) [SYN1542] |
| 7.7 | Ac-RYACTKWKHGWCEEV-NH2 (disulfide 4-12 (inferred)) [SYN1544] |
| 27.4 | Ac-RYFCTKWKAGWCEEV-NH2 (disulfide 4-12 (inferred)) [SYN1549] |
| 9.3 | Ac-RYFCTKWAHGWCEEV-NH2 (disulfide 4-12 (inferred)) [SYN1548] |
| 9.3 | Ac-RYFCAKWKHGWCEEV-NH2 (disulfide 4-12 (inferred)) [SYN1545] |
| 9.5 | Ac-RYFCTKWKHGWCEAV-NH2 (disulfide 4-12 (inferred)) [SYN1553] |
| 14.2 | Ac-RYFCTAWKHGWCEEV-NH2 (disulfide 4-12 (inferred)) [SYN1546] |
| 67.5 | Ac-RAFCTKWKHGWCEEV-NH2 (disulfide 4-12 (inferred)) [SYN1543] |
| 39.4 | Ac-RYFCTKWKHAWCEEV-NH2 (disulfide 4-12 (inferred)) [SYN1550] |
| 0.57 | Ac-AGRYFCTKWKHGWCEEVGTGG-NH2 (disulfide 6-14 (inferred)) [SYN1708] |
| 1.56 | Ac-AGRYFCTKWKHGWCEEVG-NH2 (disulfide 6-14 (inferred)) [SYN1711] |
| 0.49 | Ac-AGRYFCTKWKHGWCEEVGTGGG-NH2 (disulfide 6-14 (inferred)) [SYN1707] |
| 0.59 | Ac-AGRYFCTKWKHGWCEEVGT-NH2 (disulfide 6-14 (inferred)) [SYN1710] |
| 0.84 | Ac-GRYFCTKWKHGWCEEVGTGGGK-NH2 (disulfide 5-13 (inferred)) [SYN1705] |
| 4.62 | Ac-AGRYFCTKWKHGWCEEV-NH2 (disulfide 6-14 (inferred)) [SYN1712] |

target: T1, soluble human FcRn (shFcRn); test: SPR (Biacore), Kd pH 7.4 divided by Kd pH 6.0

| Kd Ratio 7.4/6.0 | Binder |
| --- | --- |
| 80 | Ac-VMKCWWDEEMLCRAV-NH2 (disulfide 4-12 (inferred); not fully specified) [SYN1540A] |
| 84 | Ac-VMHCFWDEEFKCDQG-NH2 (disulfide 4-12 (inferred)) [SYN1197] |
| 69 | Ac-YMHCFWDEEFKCDQG-NH2 (disulfide 4-12 (inferred)) [SYN1256] |
| 52 | Ac-VMHCFWDEAFKCDQG-NH2 (disulfide 4-12 (inferred)) [SYN1216] |
| 132 | Ac-VMHCFWDEEFKCDYG-NH2 (disulfide 4-12 (inferred)) [SYN1259] |
| 73 | Ac-VMHCFWDEEFKCDQV-NH2 (disulfide 4-12 (inferred)) [SYN1260] |
| 65 | Ac-VMHCFWDEEFKCEQG-NH2 (disulfide 4-12 (inferred)) [SYN1258] |
| 82 | Ac-VMHCFWDEEFRCDYG-NH2 (disulfide 4-12 (inferred)) [SYN1381] |
| 25 | Ac-VMHCFWDEAFRCDQG-NH2 (disulfide 4-12 (inferred)) [SYN1382] |

target: T1, soluble human FcRn (shFcRn); test: SPR (Biacore), immobilized shFcRn, pH 7.4

| Kd [µM] | Binder |
| --- | --- |
| 45.7 | Ac-VMKCWWDEEMLCRAV-NH2 (disulfide 4-12 (inferred); not fully specified) [SYN1540A] |
| 62 | Ac-VMHCFWDEEFKCDQG-NH2 (disulfide 4-12 (inferred)) [SYN1197] |
| 50 | Ac-YMHCFWDEEFKCDQG-NH2 (disulfide 4-12 (inferred)) [SYN1256] |
| 186 | Ac-VMHCFWDEAFKCDQG-NH2 (disulfide 4-12 (inferred)) [SYN1216] |
| 12 | Ac-VMHCFWDEEFKCDYG-NH2 (disulfide 4-12 (inferred)) [SYN1259] |
| 22 | Ac-VMHCFWDEEFKCDQV-NH2 (disulfide 4-12 (inferred)) [SYN1260] |
| 24 | Ac-VMHCFWDEEFKCEQG-NH2 (disulfide 4-12 (inferred)) [SYN1258] |
| 4.9 | Ac-VMHCFWDEEFRCDYG-NH2 (disulfide 4-12 (inferred)) [SYN1381] |
| 112 | Ac-VMHCFWDEAFRCDQG-NH2 (disulfide 4-12 (inferred)) [SYN1382] |
